Publication PMC4838357

Key:
Test in all cases: MITOMI
[1] = molecular target: Zif268 I28A (mouse, UniProt P08046 333-421, I359A)
[2] = molecular target: Zif268 R70A (mouse, UniProt P08046 333-421, R401A)
[3] = molecular target: Zif268 R14A (mouse, UniProt P08046 333-421, R345A)

Measured: binding result

B1: target_268wt (Zif268 consensus) (dsDNA)
DNA 1: GGCCAATTAGCGTGGGCGTTTTCCGGCGGTATGAC
DNA 2: GTCATACCGCCGGAAAACGCCCACGCTAATTGGCC
binds: [1] | [2] | [3]
